Reference: patent US20220125891

System: T1, FLAG-tagged Regnase-1 AA mutant (S435A/S439A) from Regnase-1-deficient MEFs
T1 sequence: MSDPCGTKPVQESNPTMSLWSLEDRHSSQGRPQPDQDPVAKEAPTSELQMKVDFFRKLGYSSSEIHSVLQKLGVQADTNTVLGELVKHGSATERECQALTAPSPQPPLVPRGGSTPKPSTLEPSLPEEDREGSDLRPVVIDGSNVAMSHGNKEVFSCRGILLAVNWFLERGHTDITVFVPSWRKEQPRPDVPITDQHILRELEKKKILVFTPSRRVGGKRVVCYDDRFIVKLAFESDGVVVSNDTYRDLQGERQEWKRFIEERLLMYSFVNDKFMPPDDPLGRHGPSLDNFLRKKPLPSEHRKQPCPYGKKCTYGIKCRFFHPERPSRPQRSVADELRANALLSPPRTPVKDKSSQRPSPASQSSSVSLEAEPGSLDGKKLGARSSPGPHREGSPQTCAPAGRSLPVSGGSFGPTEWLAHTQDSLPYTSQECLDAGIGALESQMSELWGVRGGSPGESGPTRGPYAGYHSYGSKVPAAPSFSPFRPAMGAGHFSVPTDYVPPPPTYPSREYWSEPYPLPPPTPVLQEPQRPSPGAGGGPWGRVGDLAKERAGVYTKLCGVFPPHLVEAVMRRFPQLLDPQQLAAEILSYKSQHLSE

Substance	in vitro phosphorylation (mobility shift by immunoblotting, 32P autoradiography)
GST-tagged IKKi (Thermo Fisher Scientific)	Phosphorylation of recombinant Regnase-1 by recombinant TBK1 and/or IKKi under in vitro conditions was detected
GST-tagged TBK1 (Sigma)	Phosphorylation of recombinant Regnase-1 by recombinant TBK1 and/or IKKi under in vitro conditions was detected
